From patent US20130337002A1

How the values were obtained:
Assay in all cases: REVEAL MHC-peptide binding
HLA-A29 = target: HLA-A29
HLA-B15 = target: HLA-B15
HLA-B35 = target: HLA-B35
HLA-A24 = target: HLA-A24
HLA-B8 = target: HLA-B8
HLA-B7 = target: HLA-B7
HLA-A3 = target: HLA-A3
HLA-B27 = target: HLA-B27
HLA-B14 = target: HLA-B14
HLA-A2 = target: HLA-A2
HLA-A1 = target: HLA-A1
HLA-A11 = target: HLA-A11

Substance	% of positive control (HLA-A29) [%]	% of positive control (HLA-B15) [%]	% of positive control (HLA-B35) [%]	% of positive control (HLA-A24) [%]	% of positive control (HLA-B8) [%]	% of positive control (HLA-B7) [%]	% of positive control (HLA-A3) [%]	% of positive control (HLA-B27) [%]	% of positive control (HLA-B14) [%]	% of positive control (HLA-A2) [%]	% of positive control (HLA-A1) [%]	% of positive control (HLA-A11) [%]
EL[Nle]GYIPLI (peptide)	20.9	8.91	2.55	0.92	17.1	0.68	4.54	0.67	0.14	97.9	18.3	3.21
[Cit]IGVRAT[Cit]R (peptide)	16.7	14.4	8.51	0.5	12.1	14.6	25.2	0.86	0.17	8.17	19.7	8.27
AEL[Nle]GYIPL (peptide)	20.8	10.2	1.91	0.37	14.7	1.11	3.05	0.77	0.12	7.49	16.6	3.61
P[Cit]IGVRAT[Cit] (peptide)	14.1	12.6	2.45	0.21	9.47	1.91	2.52	0.94	0.19	7.36	18.8	1.72
[Nle]GYIPLIGA (peptide)	27.9	11.1	5.89	1.33	21.4	1.78	3.13	1.42	0.29	10.4	17.9	7.27
GP[Cit]IGVRAT (peptide)	11.9	7.29	2.25	0.16	9.99	5.38	3.48	0.59	0.13	9.16	18.6	2.72
L[Nle]GYIPLIG (peptide)	25.9	14.6	2.85	0.71	17.3	0.89	3.98	0.73	0.15	49.5	14.3	2.48
